Experiment: soluble on expression in E. coli; label from the status in PepcDB or PDB records

Soluble on expression in E. coli, soluble:
NQNQTQHKQRPQATAEQIRLAQMISDHNDADFEEKVKQLIDITGKNQDECVIALHDCNGDVNRAINVLLEGNPDTHSWEMVGKKKGVSGQK
MGHHHHHHSHMSEPLCTSRPVLLPLNLKNIAPGRCISLTPFGHTDNLGFQCETCTDPNLNKSIPPKLEDPAFSKNELCSVTLTFYQQAEQVIQHKQFYLSLLNLSMDAVRNSLTQPGLLYCYLVTKAFMLEGFPIFFEETNGMLGLYLVFRRDLLHLHESYLRLLIDNLGNYDISVDSVGRSYIIKLCPVGNVSRIPTIPADNVCLAVNNLDYGDDVKASWIECFNIVSRLS
MSLKFIEEVVVEEFLPTFRSLLAADLRERGLTQHEVAELLGVSQSAVSKYAHGDVTTDDEIAADDRVQELVERTGSGLATGNVSQVQALVEAEVLVRELSTSSDILAERHEAANPALADYDGDFTVHDADSEVRVREHVLSSVRRGVRMLERTSGFATQIPAVGANLVECTPEADTVEDVAGVPGRVLDVMGRTEIPAEPEFGVSAYVATVLLDARAAGVDAHAALNIAYSADTVAALADAGYAVVEFEPEGESTTDDHHIRDAVRDADAVDVLYQTGGYGVEPIVYVLAENAPDAVRMARGLEGHHHHHH
MVFYFKARPDAGDYTIFMGLDKFENEELIKYGFPEDVWFHVDKMSSAHVYLRLHRGQSFDDISEGVLEDCAQLVKANSIQGNKVNNVDVVYTPWSNLKKTASMDVGQVGFHNSKMVRTIRVEKRVNEIVNRLNKTKVERTPDLRAEREAVNAAERAERKQHLREKKKREEIDRLEKERQSEMRSYKGLMVTDKMTSNKDIASSNKSLQELEDDFM
MGITTNLISEVSKFYYALKYHAKFMSLGELGCYASHYSLWEKCIELNEAICILEDDITLKEDFKEGLDFLEKHIQELGYIRLMHLLYDASVKSEPLSHKNHEIQERVGIIKAYSEGVGTQGYVITPKIAKVFLKCSRKWVVPVDTIMDATFIHGVKNLVLQPFVIADDEQISTIARKEEPYSPKIALMRELHFKYLKYWQFVLEHHHHHH
MRVIVFFDLPVITPENRHNYSVFRKYLIKSGFIMQQKSVYSKLVLNLTNRDSIVKSIEKNKPPEGLVEVLTVTEKQYAKMEIIIGESKTEYLNTDERLVVLLEHHHHHH
MSTSSLRRQMKNIVHNYSEAEIKVREATSNDPWGPSSSLMSEIADLTYNVVAFSEIMSMIWKRLNDHGKNWRHVYKAMTLMEYLIKTGSERVSQQCKENMYAVQTLKDFQYVDRDGKDQGVNVREKAKQLVALLRDEDRLREERAHALKTKEKLAQTATASSAAVGSGPPPEAEQAWPQSSGEEELQLQLALAMSKEEADQEERIRRGDDLRLQMAIEESKRETGGKEESSLMDLADVFTAPAPAPTTDPWGGPAPMAAAVPTAAPTSDPWGGPPVPPAADPWGGPAPTPASGDPWRPAAPAGPSVDPWGGTPAPAAGEGPTPDPWGSSDGGVPVSGPSASDPWTPAPAFSDPWGGSPAKPSTNGTTAGGFDTEPDEFSDFDRLRTALPTSGSSAGELELLAGEVPARSPGAFDMSGVRGSLAEAVGSPPPAATPTPTPPTRKTPESFLGPNAALVDLDSLVSRPGPTPPGAKASNPFLPGGGPATGPSVTNPFQPAPPATLTLNQLRLSPVPPVPGAPPTYISPLGGGPGLPPMMPPGPPAPNTNPFLL
MILKPENEKKLIIDVLKKFGVPEEDAKITADVFVDADLKGFTSHGIGRFPQYITALKLGNINPKPDIKIVKESPATAVIDGDLGLGQVVGKKAMELAIKKAKNVGVGVVATRNANHFGIAGYYSELAMNQDMIGITITNTEPAMAPFGGKEKILGTNPIAIAFKGNKYKFSLDMATASIARGKILEALRKKIKIPEGCAVDKDGKPTTDPAKALEGCILPFGGPKGYGLALAIEMLSAIGGAEVGTKVKGTANPEERCTKGDLFIAINPEFFMGKEEFKRKVDELLDEIKNSEPAEGFEILIPGEIEERNKMKRKDGFEIDKNLYNQLKEICNELGLNIEDYIE

Soluble on expression in E. coli, not soluble:
MRALLFTSVVLLALAFVEAKKQTITVKGTTICNKKRIQAEVTLWEKDTLDPDDKLASMQSNKEGEFSLTGSDDEITSISPYLIITHNCNVKKAGCKRVSEYLIPKEKIGGTYDMTYVTLDILSAKDKEKC
PSLSDEISPQGDGSFLIEGSTNIRDINKGLKWDLPTDGPRTLNGLILEHLEDIPESHLSVRVAGHPMEIVEIEENRIKLVRVYPKK
MEKGAPQNNADEEAKVEVPPPAPKTTSAERAPEKVSAEKAQEQEKSAMGSVPIPPEREKHIKERKTGYEYSIVTINYKPGTKFGLGIKNVFNKSIYVIKVEENSLVSGIFNVADRIIDVDGEPVYDNAKCKGLLVKALKEKKVCTLLIERGITESALKDATNEMNEEHTQSVMAPPDVKSIMRKLEAHNFLRKSPSCESAAAPNPVPSAMTKNKEGKGERKACILEDGHKSVMIRMDNEENRNKLKKVEPKEPPRRLDPKTPPKPAAPEPKPEGK
MDENLRQLAESILTDLTQDAPIANTMLKAKVFASKKNDKDLLSWIEHELNGYEENLPKYRLLDAGVKVDIHRGFQEVLGYNYPMGMVKDEKVRERLLHLPIHGSISEVEELSTKSGEGTIHIDIPIEIWYHHMRHCINGDIQRAYQFATVASVKQIMVKIKSLLIDYFLKIDKGESLSFLSLIKKETPTMQIIAGIVNTGS
MGSDKIHHHHHHMVDLDLTQIQKDILYALITLYKKKSGGSVKGEEIAELINRNPGTVRNQMQALRALGLVEGVPGPKGGYRPTSKAYELLSVTRPEESVVVPVVVNGNVMEELSAEEIVLPSISNPNICQARIRIIGDIKKINPGDSVIVGPTPVNEMMVYGKVVGRDDTENTIVLDIEKIVALPKDTVGEHMSSPIISVDAEESVVNAAKVLAENGIYCTPVQKNGKFVGIFTLDHVAKAVAEGKLNAKVEEVMRPKLVMVEKDTKIGEALRLMRDEKVRILLVTDKGEPVGVITDQKILTRLAPEQVET
MQTNLERIKKHIEKLDTFTATPGQGTTRLTYSKEDLDARNYLKQEMAKVGLTVSEDAIGNIYGRLEGESPDLPAVIVGSHFDSVPNGGAFDGPAGVITGLEVASVFHEQQIKPHFPLEIIAMVEEEGSRFGAGLLASRAITGKVTTEMLHEMKDIDGITATDAMAKLGFNANRVHRAIRTKESVKAFIELHIEQGPILENASEDVALVDTVVGLTQIKVTVKGQAGHAGTTPMLDRKDALVSAVEILGQLPELAIQEGGGTVLTVGKLNVYPNGANVIPDKVIFTVDIRAKDEIHVQNTLAKTKEIIQATEKNGITCEIKDMIYQQPTHLSKEIHQALTESADQLGFKYRTMVSGAGHDAMIFASLTEVGLIFVPSHNGISHAPEEWTDYDKLQKGIEVVLKTVKKWTEESANESENKTNSFK
MPYLNCDTITGDFHFQMIRFARAMEVGDKLTMKGKIMNPANMSYLHLYQGFNSVYEKSPLSLHIRVQYLRNSIIYNSWFGSWGGEQFSQQPFLSGNYYSISVLKGPTYYSIYMGNLLITKYAFRNPANWQIGNLLGYGDWTVTSVSMTCVRPGVPTTPDPKATTTPTPTTTKAQNIIAEDPNGGQLGGGELVVTNPGSVGSGSGNSGNSSNNNNSSGNSNYGSNNSGSGNGNSNSGNGNSGNGNGNNAGNSGNGNGNSNGNNGNGSNGNGNGNNGNGNNGNNGNGHPQYPYPVPPHGYYPPGYPYPPGYPYPPPGAFYYPPGGIPQNGMNGQNGNGQPNIIVINSGGNKKRNRGGNLRPQFDVDLDGDEDEEC
MNPFTYSKPTDITAAVNLSGPATRFIAGGTNLLDLMKENVATPEHLIDITGLPLREVSETASGGLMIGALVSNADLAYHPLIEARYPLLSKAVLAGASPQLRNMASTGGNLLQRTRCYYFYDTGVPCNKREPGSGCPAREGLNRIHAILGASDECVATHPSDMCVALAALEAVVHVEGRAGRRTIEFADFHRLPGDAPQRDNQLADDELIIAVELPAQGFASHNAYLKIRDRASYAFALISVAAAIDLDGDVVRDVRLALGGVAHKPWRDKAVEALLIGKPVTREHFAAAADAMLEDAKPLEHNGFKVRLARRAIIRALSDAATGGSAL
MTIGTLPFDQETIRQRASEVNEAAWLTEFRLQALAQATELPMPTPDKTKIDKWDFIGKGDAAKQEPVSSLTELPEAVKNLIDENNSVLVQRTGTTAFVSLADEAKEKGVIFTDIVTAATEHAELVQKYLMKDGVKVDEHRLTALHAALINGGAFVYVPKNVVLETPLQAVFLVDGEEANVYNHVLFVADANSTATYVENYVANENAKGIANIVAEVIVEQGAQVKFGAVDLLAKDVTTYVNRRGVVGRDGRIDWALGLMNDGNTISENVTNLMGDGSYADTKTVTIGRGNQTQNFTTKVVHFGKHSEGWILKHGVQKDSATSIFNGIGKIEHGASKSNAQQSSRVLMLDEKARGDANPILLIDEDDVMAGHAASVGRVDPVQLYYLMSRGIPKREAERLVIHGFLAPVVNELPIEGVKAQLVEVIERKVR
MGSDKIHHHHHHMNGQPLIQVSDFEGPLDLLLHLIKTNEMDIYDIRISTITSQYLTYLHQMQLVRLDVAGEYFVMAANLMAIKAKLLLPKPQSVVPVDEDEPADPREELVNQLLEYQRYKQAAQALKQRALERQQHFTRPAMAVPESVELTVAPGIKPVDLQTALVRLMQRATLAKPVTQSVHQEHFTIKRQMTTILQRLKGTTAPVAFEQLLVTHPVMEEVVTTFLAVLELARQRQVQLQQAGRLAPLQVNFLQMEGRFSTDVTSSTD
MGSDKIHHHHHHMKDYTYSVTEINEYIKDLIEGDPYLTNVSVYGEISGVRPRKGHIFFSLVEENARLECVIFGGDNMGIRLQEGRMALVEGSVSVYIPHGTYRFICSNVRYLDQAGMYQIKFETTLKKLLEEGLLSRPKKTVPRFPRKIGIITSRDSAALQDVIRTARERKAPIEIYVFHTSVQGDSAREELIKALRKANEYDLDLVMIVRGGGSKEDLWVFNEEDVIREILRLRHPVVTGIGHEIDRVIADFVADVSMHTPTGAAEYVIPDASEIHEDLDSFFEKLITSLSNRFDMEERRLETLYFRLRMIGRRKLELNEFKIERVKELAAKLRKKLMDYFEHNQKKLDSLGRMLESLNPLRPLERGFVLVKKDEKIVKESTDLKRGDVVSLVFKDGTKKAQVIG
MSLAANTQDVEITIPQGASLYQVSERLYDEGVIRSRLWFRYQGKISQADRNIRPGAYTFSPDTDLEEIFTLLQKGVPEQPVIMTIPEGFTLYEIAQRVESLGFGLAEEFIKATQDYFKSRDYSFDTSELYFEMEGYLYPDTYHLKKNQDMKAIVHSLVSPIDAFFSEEYIKRAEELGLSLHEVLTIASIIEREAYHDEERATVSGVIFNRLGIRMSLQIDATVIYGLGEGKEHRNRVLYADLETPNPFNTYMNTGIPPGPIAAPSKASIHATLYPEDHSYLYYVLGEGGHVFSETYQEHLKHVDAYRRRINEGHHHHHH
MSLKARTKIEKQVAASNEKLTAISPKVMTWAVRKVAGHVCFRTSAHKCTCGECGRQFDYEGKGKSVCCPYCGTRLQIKDTLKRTIKEAYYFSSLEVIDHLQVQRVFRLETTFRKGLPMEVDYWEACRLWLNAEGKSAVTARARTLSYYVDCFDWASEITLKRPNEVHWLIADTYVYPHYRLLPELKRNGMKGKLPDCYPMKLMKAVLTDSRMETILKSKDLHAVSYFVNRPLELDRCWQSYKVATRHHYRPSDMGLWADTIRLLEQCGKDICSPRYICPQNLKAEHDYWMNRHNQMEQKRRSQEQIQRAKRKEAEFYKEKSRYFGITITDKDLVISVLDTLEAFQAEGNALHHCVFQCEYYAKADSLILSAHDKEGNRIETIEFSLTEGKVIQSRGLCNTNTPHHDRIVRLVNAHAHQILAAKQTAEGHHHHHH

From the DeepSol protein solubility set
